Results on one variant are retold here after paper PMC11441981.

B1: GST-tagged CG9590 (Drosophila FAM114A) [Drosophila] / Vap33 [Drosophila (endogenous in S2 cells)] (parent)
chain 1: MAKNPKKEEDGGNDWAQSDEDDNWDDWGDDDDKFVHVEKEQQPQEKVSSRNDAKGTAENQEKLETPRISAPATASATSSSWGLWGGKLSSVLTTATEGLGTITTQVNQGLNQIIGVPDPEELARINVAEKAEKAAKAPPEENVDDEKESSAAFGLDFVTNLGSKVLNTGLDTLEGIGKKTMTILQDNDPKLMNKRKLLGLEANSPNLSAVLLEAKKEADQMEQSLQQLQLKRQKAQLRFEILFENYCGLVHFEALEILSKESRLKLDTLLDAVSGNARAELQETINEVKELIELEDLDVESEGDYEAEELSERLAATIKDAELGIQFDDIANHWTQSLSWLTSEEATAADLEQAYAKSIHALSEACALEMCKLHKIAELLLVKPHHSTANEVDGVVNLCQQFNGHLQGLSHRFAAVLSGKSETEESKGRVSTFFSEMLSAVQFIEKAYKLFTPILQMGAV
chain 2: MSKSLFDLPLTIEPEHELRFVGPFTRPVVTIMTLRNNSALPLVFKIKTTAPKRYCVRPNIGKIIPFRSTQVEICLQPFVYDQQEKNKHKFMVQSVLAPMDADLSDLNKLWKDLEPEQLMDAKLKCVFEMPTAEANAENTSGGGAVGGGTGAAGGGSAGANTSSASAEALESKPKLSSEDKFKPSNLLETSESLDLLSGEIKALRECNIELRRENLHLKDQITRFRSSPAVKQVNEPYAPVLAEKQIPVFYIAVAIAAAIVSLLLGKFFL

In the assay the parent is B1. Nature of the assay: GST pull-down from S2 cell lysate with mass spectrometry (volcano plot of spectral intensities). The note with it: three biological replicates, read off a plot.
Regarding chain 1 MAKNPKKEEDGGNDWAQSDEDDNADDAGDDDDKFVHVEKEQQPQEKVSSRNDAKGTAENQEKLETPRISAPATASATSSSWGLWGGKLSSVLTTATEGLGTITTQVNQGLNQIIGVPDPEELARINVAEKAEKAAKAPPEENVDDEKESSAAFGLDFVTNLGSKVLNTGLDTLEGIGKKTMTILQDNDPKLMNKRKLLGLEANSPNLSAVLLEAKKEADQMEQSLQQLQLKRQKAQLRFEILFENYCGLVHFEALEILSKESRLKLDTLLDAVSGNARAELQETINEVKELIELEDLDVESEGDYEAEELSERLAATIKDAELGIQFDDIANHWTQSLSWLTSEEATAADLEQAYAKSIHALSEACALEMCKLHKIAELLLVKPHHSTANEVDGVVNLCQQFNGHLQGLSHRFAAVLSGKSETEESKGRVSTFFSEMLSAVQFIEKAYKLFTPILQMGAV [chain 1 W24A W27A], the screen value stood at 5.2 log2.
